This is an account of results in publication PMC2172305.

The target of this experiment is Crk (UniProt P46108). Put plainly: anti-Flag co-IP, anti-HA blot. The note with it: reference: cells infected with noninvasive Shigella; sites Y421,Y466,Y482.

“cortactin (from UniProt Q60598) cells infected with invasive Shigella”: the fold change entry is given as “stronger; reference 1”.
